Test results from patent publication US20260265358A1 (BYOMASS, published 2026).
Where a chain is given by its changes, count along the chain named.

B1: anti-Activin A antibody Clone C (IgG) (antibody, V domains shown)
VH: QVQLVQSGAEVKKPGASVKVSCKASGYTFPGYHMHWVRQAPGQGLEWMGVINPSSGDTNYAQKFQGRVTMTRDTSISTAYMELSRLRSDDTAVYYCARARDIAALGLGAFDYWGQGTLVTVSS
VL: EIVLTQSPGTLSLSPGERATLSCRASQSVSSSYLAWYQQKPGQAPRLLIYGASSRAGGIPDRFSGSGSGTDFTLTISRLEPEDFAVYYCQQYVAYPRTFGGGTKVEIKR
notes: IgG format
B2: anti-Activin A antibody Clone F (IgG) (antibody, V domains shown)
VH: QVQLVQSGAEVKKPGASVKVSCKASGYTFTGYHIHWVRQVPGQGLEWMGVISAYSGDTNYAQKLQGRVTMTTDTSTSTAYMELRSLRSDDTAVYYCARARDIAALGLGAFDYWGQGTLVTVSS
VL: EIVLTQSPATLSVSPGERATLSCRASQSVSSNLAWYQQKPGQAPRLLIYGASDRATGIPARFSGSGSGTEFTLTISSLQSEDFAVYYCIQYSNYPRTFGGGTKVEIKR
notes: IgG format; also called Antibody F
B3: anti-Activin A antibody Clone D (IgG) (antibody, V domains shown)
VH: B1 VH with P30F, H33S
VL: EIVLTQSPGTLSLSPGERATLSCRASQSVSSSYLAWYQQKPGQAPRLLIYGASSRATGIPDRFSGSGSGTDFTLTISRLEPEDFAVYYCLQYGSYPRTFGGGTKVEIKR
notes: IgG format; also called Antibody D
B4: anti-Activin A antibody Clone M (IgG) (antibody, V domains shown)
VH: QLQLQESGPGLVKPSETLSLTCTVSGGSISSSDYYWGWIRQPPGKGLEWIGSIYYPANTYYNPSLKSRVTISVDTSKNQFSLKLSSVTAADTAVYYCARGYWNYGMDVWGQGTTVTVSS
VL: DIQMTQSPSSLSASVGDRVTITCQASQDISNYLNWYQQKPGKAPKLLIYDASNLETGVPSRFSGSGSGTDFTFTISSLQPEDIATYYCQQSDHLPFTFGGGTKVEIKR
notes: IgG format; also called Antibody M
B5: anti-Activin A antibody Clone N (IgG) (antibody, V domains shown)
VH: B4 VH with N58S
VL: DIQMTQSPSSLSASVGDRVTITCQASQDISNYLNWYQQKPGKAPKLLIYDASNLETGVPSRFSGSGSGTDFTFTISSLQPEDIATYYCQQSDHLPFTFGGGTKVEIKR
notes: IgG format; also called Antibody N
B6: anti-Activin A antibody Clone O (IgG) (antibody, V domains shown)
VH: QVQLVQSGAEVKKPGSSVKVSCKASGGTFSNYDINWVRQAPGQGLEWMGGIIPVFGTAAYAQKFQGRVTITADESTSTAYMELSSLRSEDTAVYYCAREARDGYRYAFQHWGQGTLVTVSS
VL: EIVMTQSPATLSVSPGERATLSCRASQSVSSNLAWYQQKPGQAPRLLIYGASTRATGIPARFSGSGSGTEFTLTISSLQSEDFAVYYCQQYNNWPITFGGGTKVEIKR
notes: IgG format; also called Antibody O
B7: anti-Activin A antibody Clone R (IgG) (antibody, V domains shown)
VH: QVQLVQSGAEVKKPGSSVKVSCKASGGSFSPYTISWVRQAPGQGLEWMGGIILTSGTANYAQKFQGRVTITADESTSTAYMELSSLRSEDTAVYYCARGGPLSGWRASYYYWGQGTLVTVSS
VL: not shown
notes: IgG format; also called Antibody R
B8: anti-Activin A antibody Clone P (IgG) (antibody, V domains shown)
VH: QVQLVQSGAEVKKPGSSVKVSCKASGGTFDDYAISWVRQAPGQGLEWMGGIIPRFGIANYAQKFQGRVTITADESTSTAYMELSSLRSEDTAVYYCARPPSSGSDWGQGTLVTVSS
VL: DIQMTQSPSSVSASVGDRVTITCRASQGIDSWLAWYQQKPGKAPKLLIYAASSLQSGVPSRFSGSGSGTDFTLTISSLQPEDFATYYCQQVHSFPITFGGGTKVEIKR
notes: IgG format; also called Antibody P
B9: anti-Activin A antibody Clone J (IgG) (antibody, V domains shown)
VH: EVQLVQSGAEVKKPGSSVKVSCKASGGTFSLYAISWVRQAPGQGLEWMGGIIPYFGTANYAQKFQGRVTITADESTSTAYMELSSLRSEDTAVYYCARGGSGYSTSWGSSLYWGQGTLVTVSS
VL: B1 VL with S53F, G57T, Y92S, V93G, A94V, Y95F, R97Y

These binders were tested against T1, Activin B (UniProt P09529 293-407) (assay: cell-based or functional assay).
T1 sequence (looked up): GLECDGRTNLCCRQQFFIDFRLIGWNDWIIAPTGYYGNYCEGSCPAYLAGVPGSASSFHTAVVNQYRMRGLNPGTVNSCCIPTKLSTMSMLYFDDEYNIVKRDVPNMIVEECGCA
For B1, the “Activin B-ActRIIB SMAD IC50 pM” value was over 100000 pM.
In the case of B2, the “Activin B-ActRIIB SMAD IC50 pM” value is reported as 24900 pM.

The binders below were run against T2, Human GDF10 (human, UniProt P55107 369-478) (assay: Octet BLI, IgG, avid).
T2 sequence (looked up): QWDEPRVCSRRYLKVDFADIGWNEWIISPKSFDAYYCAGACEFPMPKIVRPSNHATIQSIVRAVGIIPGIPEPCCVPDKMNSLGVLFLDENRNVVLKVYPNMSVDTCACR
B1: no binding (tested: 100 nM antigen).
B3: no binding (tested: 100 nM antigen).
B4: no binding (tested: 100 nM antigen).
B5: no binding (tested: 100 nM antigen).
B6: no binding (tested: 100 nM antigen).
B2: no binding (tested: 100 nM antigen).
B7: no binding (tested: 100 nM antigen).
B8: no binding (tested: 100 nM antigen).

What follows are binders tested against Human GDF11 (human, UniProt O95390 299-407) (assay: Octet BLI, IgG, avid).
Sequence of Human GDF11 (O95390 299-407 limits assumed): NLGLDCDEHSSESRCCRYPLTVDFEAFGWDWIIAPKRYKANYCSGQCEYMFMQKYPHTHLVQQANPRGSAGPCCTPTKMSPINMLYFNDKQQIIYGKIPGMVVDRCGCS
With B1 the Kd was 12.7 nM.
B3 showed a Kd of 23.4 nM.
B4: no binding (tested: 100 nM antigen).
B5: no binding (tested: 100 nM antigen).
B6: no binding (tested: 100 nM antigen).
In the case of B2, the Kd is reported as 18.7 nM.
B7: no binding (tested: 100 nM antigen).
B8: no binding (tested: 100 nM antigen).

The binders below were run against T3, BMP9 (UniProt Q9UK05 320-429) (assay: Octet BLI, IgG, avid).
T3 sequence (looked up): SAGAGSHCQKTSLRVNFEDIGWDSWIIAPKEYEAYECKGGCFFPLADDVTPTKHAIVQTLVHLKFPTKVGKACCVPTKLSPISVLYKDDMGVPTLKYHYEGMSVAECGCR
B1: no binding (tested: 100 nM antigen).
B3: no binding (tested: 100 nM antigen).
B4: no binding (tested: 100 nM antigen).
B5: no binding (tested: 100 nM antigen).
B6: no binding (tested: 100 nM antigen).
B2: no binding (tested: 100 nM antigen).
B7: no binding (tested: 100 nM antigen).
B8: no binding (tested: 100 nM antigen).

Each binder was assayed against T4, GDF15 Fc (UniProt Q99988 197-308, limits assumed) (assay: Octet BLI, IgG, avid).
T4 construct: not shown: Fc part
T4 sequence (looked up): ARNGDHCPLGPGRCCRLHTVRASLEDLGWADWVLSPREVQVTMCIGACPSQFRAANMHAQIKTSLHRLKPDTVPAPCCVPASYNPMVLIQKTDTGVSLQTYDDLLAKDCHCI
B1: no binding (tested: 100 nM antigen).
B3: no binding (tested: 100 nM antigen).
B4: no binding (tested: 100 nM antigen).
B5: no binding (tested: 100 nM antigen).
B6: no binding (tested: 100 nM antigen).
B2: no binding (tested: 100 nM antigen).
B7: no binding (tested: 100 nM antigen).
B8: no binding (tested: 100 nM antigen).

What follows are binders tested against T1, Activin B (assay: Octet BLI, IgG, avid).
For B1, the Kd was 148 nM.
With B3 the Kd was 153 nM.
B4 was tested, and the Kd was 9.58 nM.
B5 showed a Kd of 6.98 nM.
B6: no binding (tested: 100 nM antigen).
B2 was tested, and the Kd was 80.1 nM.
B7: no binding (tested: 100 nM antigen).

These binders were tested against T5, BMP10 (UniProt O95393 317-424) (assay: Octet BLI, IgG, avid).
T5 sequence (looked up): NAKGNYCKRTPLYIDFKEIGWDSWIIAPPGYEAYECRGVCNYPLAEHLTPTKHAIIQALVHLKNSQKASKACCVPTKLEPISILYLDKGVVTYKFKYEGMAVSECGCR
B1: no binding (tested: 100 nM antigen).
B3: no binding (tested: 100 nM antigen).
B4: no binding (tested: 100 nM antigen).
B5: no binding (tested: 100 nM antigen).
B6: no binding (tested: 100 nM antigen).
B2: no binding (tested: 100 nM antigen).
B7: no binding (tested: 100 nM antigen).
B8: no binding (tested: 100 nM antigen).

What follows are binders tested against T6, Human GDNF (human, UniProt P39905 78-211) (assay: Octet BLI, IgG, avid).
T6 sequence (looked up): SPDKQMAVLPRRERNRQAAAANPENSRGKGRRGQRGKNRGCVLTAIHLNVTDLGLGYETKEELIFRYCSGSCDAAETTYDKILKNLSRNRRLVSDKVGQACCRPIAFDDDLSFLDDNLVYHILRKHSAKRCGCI
B1: no binding (tested: 100 nM antigen).
B3: no binding (tested: 100 nM antigen).
B4: no binding (tested: 100 nM antigen).
B5: no binding (tested: 100 nM antigen).
B6: no binding (tested: 100 nM antigen).
B2: no binding (tested: 100 nM antigen).
B7: no binding (tested: 100 nM antigen).
B8: no binding (tested: 100 nM antigen).

These binders were tested against Human GDF8 (human, UniProt O14793 267-375) (assay: Octet BLI, IgG, avid).
B1: no binding (tested: 100 nM antigen).
B3: no binding (tested: 100 nM antigen).
B4: no binding (tested: 100 nM antigen).
B5: no binding (tested: 100 nM antigen).
B6: no binding (tested: 100 nM antigen).
B2: no binding (tested: 100 nM antigen).
B7: no binding (tested: 100 nM antigen).
B8: no binding (tested: 100 nM antigen).

What follows are binders tested against T7, Human Activin A Fc (human, UniProt P03970 309-424 (pig entry)) (assay: Octet BLI, IgG, avid).
T7 construct: also called human Activin A-Fc fusion; human Activin A-Fc antigen; not shown: Fc part
T7 sequence: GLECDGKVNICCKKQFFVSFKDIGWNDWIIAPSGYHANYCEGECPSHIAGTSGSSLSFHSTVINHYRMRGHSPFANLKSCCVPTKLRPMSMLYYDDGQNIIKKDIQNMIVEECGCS
Experimental: ForteBio affinity measurements were performed on an Octet HTX generally as previously described (see, e.g., Estep et al, Mabs 5(2), 270-278 (2013)). Briefly, ForteBio affinity measurements were performed by loading IgGs on-line onto AHC sensors. Sensors were equilibrated off-line in assay buffer for 30 min and then monitored on-line for 60 seconds for baseline establishment. Sensors with loaded IgGs were exposed to 100 nM antigen for 3 minutes, and afterwards were transferred to assay buffer for 3 min for off-rate measurement. All kinetics were analyzed using the 1:1 binding model.
Binding affinity and epitope binning assays were performed with a ForteBio instrument as described herein.
B1 gave a Kd of 0.477 nM.
Work on B3 yielded a Kd of 0.515 nM.
Work on B4 yielded a Kd of 1 nM.
Binder B5 has a Kd of 1.26 nM.
In the case of B6, the Kd is reported as 0.442 nM.
With B2 the Kd was 0.492 nM.
Binder B7 has a Kd of 0.6 nM.
B8 was tested, and the Kd was 1.28 nM.

The binders below were run against T8, Activin A (ligand of the Activin 2B Receptor/SMAD reporter assay) (UniProt P08476 311-426) (assay: cell-based or functional assay).
T8 sequence (looked up): T7 sequence
With B9 the “Activin A-ActRIIB SMAD IC50 pM” value was 41.7 pM.
With B4 the “Activin A-ActRIIB SMAD IC50 pM” value was 719 pM.
For B5, the “Activin A-ActRIIB SMAD IC50 pM” value was 241 pM.
B6 was tested, and the “Activin A-ActRIIB SMAD IC50 pM” value was 5400 pM.
